Measured values as given in paper PMC2867956, “Interdomain Interactions Control Ca^2+-Dependent Potentiation in the Cation Channel TRPV4” (PLoS ONE, 2010).
Each block holds one substance with its values, some of them ahead of it.

How the values were obtained:
[1] = target: YFP-fused C1 fragment (full-length TRPV4 C terminus); experiment: FRET acceptor photobleaching in HEK293 cells; settings: coexpressed in HEK293 cells; 3 independent experiments; parent: est. 35; read off a plot
[2] = target: C2-Flag (C-terminal TRPV4 fragment C2) (human); experiment: AlphaScreen or HTRF; competition: acceptor beads with C2-Flag, donor beads with P2-biotin or C2-biotin, increasing CaM, 100 µM Ca2+ or 1 mM EGTA
[3] = target: C2-GST-biotin (C-terminal TRPV4 fragment C2) (human); experiment: AlphaScreen or HTRF; C2-biotin with CaM-Flag or mutants, Ca2+ concentration varied
[4] = target: N1-YFP (full-length TRPV4 N terminus); experiment: FRET or BRET; acceptor photobleaching FRET of CFP- and YFP-fused TRPV4 termini coexpressed in HEK293 cells
Sequence of N1-YFP (full-length TRPV4 N terminus) (Q9HBA0 whole entry, the tested form may be a part): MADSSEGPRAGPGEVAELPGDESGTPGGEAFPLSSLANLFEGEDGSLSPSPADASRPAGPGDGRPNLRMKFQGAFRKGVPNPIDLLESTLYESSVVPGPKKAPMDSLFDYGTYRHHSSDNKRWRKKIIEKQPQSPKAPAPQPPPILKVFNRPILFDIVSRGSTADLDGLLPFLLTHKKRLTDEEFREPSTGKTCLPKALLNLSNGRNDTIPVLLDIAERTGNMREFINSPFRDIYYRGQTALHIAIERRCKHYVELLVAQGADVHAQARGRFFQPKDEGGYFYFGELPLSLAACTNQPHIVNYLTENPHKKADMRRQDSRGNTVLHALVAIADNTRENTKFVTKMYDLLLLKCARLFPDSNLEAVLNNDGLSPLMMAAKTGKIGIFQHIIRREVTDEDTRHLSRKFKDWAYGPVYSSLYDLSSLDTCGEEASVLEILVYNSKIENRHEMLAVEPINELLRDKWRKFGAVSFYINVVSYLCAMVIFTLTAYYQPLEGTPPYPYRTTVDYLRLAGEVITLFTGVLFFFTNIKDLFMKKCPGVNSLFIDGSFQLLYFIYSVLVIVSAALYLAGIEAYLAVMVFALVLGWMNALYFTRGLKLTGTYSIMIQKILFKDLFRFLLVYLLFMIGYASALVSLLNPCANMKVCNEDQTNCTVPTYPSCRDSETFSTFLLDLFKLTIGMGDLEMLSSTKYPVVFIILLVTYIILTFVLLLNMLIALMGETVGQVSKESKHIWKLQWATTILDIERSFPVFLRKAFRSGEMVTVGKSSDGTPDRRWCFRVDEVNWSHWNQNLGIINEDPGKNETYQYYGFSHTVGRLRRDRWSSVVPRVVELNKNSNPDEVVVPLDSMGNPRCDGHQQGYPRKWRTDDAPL

Sequence of CFP-fused N1 (full-length TRPV4 N terminus) (domain or fragment) (Q9HBA0 whole entry, the tested form may be a part): as above
Sequence of C2-GST-biotin (C-terminal TRPV4 fragment C2) (human) (Q9HBA0 whole entry, the tested form may be a part): as above
Sequence of C2-Flag (C-terminal TRPV4 fragment C2) (human) (Q9HBA0 whole entry, the tested form may be a part): as above

Substance: calmodulin (from UniProt P0DP23 1-149) (natural protein)
IC50 [2]: 0.166 µM

Substance: CaM12 (CaM mutant Ca2+ binding-deficient in the N lobe), Flag-tagged (from UniProt P0DP23 1-149) (natural protein)
EC50 of Ca2+ for the interaction [3]: 10.7 µM

Substance: CFP-fused N1 (full-length TRPV4 N terminus) KRA
response [1]: 17%

Substance: wild type CaM-Flag (from UniProt P0DP23 1-149) (natural protein)
EC50 of Ca2+ for the interaction [3]: 8.8 µM

Substance: CFP-fused N1 (full-length TRPV4 N terminus) (domain or fragment)
maximal relative donor fluorescence increase after acceptor bleaching [4]: 1.27

Continued, values first:

response [1]: 25%
Substance: CFP-fused N1 (full-length TRPV4 N terminus) WIA

EC50 of Ca2+ for the interaction [3]: 27 µM
Substance: CaM34 (CaM mutant Ca2+ binding-deficient in the C lobe), Flag-tagged (from UniProt P0DP23 1-149) (natural protein)
